{"source": "patent US10221404B2", "about": "“Method for modifying characteristics of a lipase” (Novozymes A/S, priority 2014, dated 2019)", "molecules": {"B1": {"name": "RmL: Rhizomucor miehei lipase mature protein (SEQ ID NO: 3), without propeptide (protein, listed as Rhizomucor miehei)", "chain": "SIDGGIRAATSQEINELTYYTTLSANSYCRTVIPGATWDCIHCDATEDLKIIKTWSTLIYDTNAMVARGDSEKTIYIVFRGSSSIRNWIADLTFVPVSYPPVSGTKVHKGFLDSYGEVQNELVATVLDQFKQYPSYKVAVTGHSLGGATALLCALDLYQREEGLSSSNLFLYTQGQPRVGDPAFANYVVSTGIPYRRTVNERDIVPHLPPAAFGFLHAGEEYWITDNSPETVQVCTSDLETSDCSNSIVPFTSVLDHLSYFGINTGLCT"}}, "key": {"[1]": {"assay": "AMSA wash performance, propeptide dose response", "settings": "Model B/50 mM glycine pH 8; normalized to wash performance without inhibitor; 3 hours incubation at 4° C.", "method": "(§1) Washing experiments were performed using Automatic Mechanical Stress Assay (AMSA) in order to assess the wash performance in laundry. The AMSA plate has a number of slots for test solutions and a lid firmly squeezing the laundry sample, the textile to be washed against all the slot openings. During the washing time, the plate, test solutions, textile and lid were vigorously shaken to bring the test solution in contact with the textile and apply mechanical stress in a regular, periodic oscillating manner. For further description see WO02/42740 especially the paragraph “Special method embodiments” at page 23-24.\n(§2) The laundry experiments were conducted in Model Detergent B, pH8. The experimental conditions are specified below:\n(§3) Final adjustments to the specified pH were done with NaOH or citric acid. Water hardness was adjusted to 15° dH by addition of CaCl2 and MgCl2 (Ca^2+:Mg^2+=4:1) to the test system.\n(§4) After washing the textiles were flushed in tap water and excess water was removed from the textiles using filter paper and immediately thereafter the textiles were dried at 85° C. for 5 min.\n(§5) The wash performance was measured as the color change of the washed soiled textile. The soil was cream mixed with turmeric. Turmeric contains the colorant curcumin, which function as a pH indicator by having pH dependent color change. Lipase activity leads to release of free fatty acids from the cream acylglycerides and this leads to pH decrease and thereby color change of the curcumin pH indicator. Lipase wash performance can therefore be expressed as the extent of color change of light reflected-emitted from the washed soiled textile when illuminated with white light.\nColor measurements were made with a professional flatbed scanner (EPSON EXPRESSION 10000XL, Atea NS, Lautrupvang 6, 2750 Ballerup, Denmark), which was used to capture an image of the washed soiled textile. […]\n(§6) Color change due to lipase activity was measured as the increase in the reflection-emitting of green light (G) relative to the sum of reflected-emitted blue (B) and red (R) light. The wash performance (RP(Wash)) of a lipase relative to a reference lipase (Lipolase™) was calculated as: RP(Wash)=(G/(B+R)(tested lipase)−G/(B+R)(no enzyme))/(G/(B+R)(lipase ref.)−G/(B+R)(no enzyme)).\nThe inhibitory effect of the isolated propeptide (PP) was determined by mixing isolated propeptide in molar excess with separately purified active RmL core-enzyme at increasing molar ratios of propeptide to lipase. […] After 3 hours incubation at 4° C. lipase wash performance of the incubated lipase-inhibitor samples were determined by Automatic Mechanical Stress Assay (AMSA) as described above. […]"}, "[2]": {"assay": "Thermostability by Differential Scanning Calorimetry (DSC)", "assay_type": "physicochemical", "settings": "50 mM HEPES, 100 mM NaCl, 1 mM CaCl2, pH8.0; heating rate 200 K/hr", "method": "The thermostability of Rhizomucor miehei lipase, RmL (SEQ ID NO: 3) with or without non covalently bound native propeptide (SEQ ID NO: 4) was determined by Differential Scanning calorimetry (DSC) using a VP-Capillary Differential Scanning calorimeter (MicroCal Inc., Piscataway, N.J., USA).\nThe thermal denaturation temperature, Td (° C.), was taken as the top of denaturation peak (major endothermic peak) in thermograms (Cp vs. T) obtained after heating enzyme solutions in buffer (50 mM HEPES; 100 mM NaCl; 1 mM CaCl2; pH8.0) at a constant programmed heating rate of 200 K/hr. RmL without propeptide added was analyzed at a concentration of 0.42 mg/mL, where as in presence of propeptide the concentration of RmL was 0.34 mg/mL as a consequence of mixing of 440 uL enzyme solution (at 0.42 mg/mL) and 100 uL peptid solution at a concentration of 480 uM (concentration determined by amino acid analysis)\nSample- and reference-solutions (approx. 0.2 mL) were loaded into the calorimeter (reference: buffer without enzyme) from storage conditions for 3 hours (mixing) at 10° C. and thermally pre-equilibrated for approx. 20 minutes at 20° C. prior to DSC scan from 20° C. to 100° C. Denaturation temperatures were determined at an accuracy of approximately +/−1° C."}, "[3]": {"assay": "AMSA wash performance, specificity of inhibitory effect of propeptide", "method": "as §1, §2, §3, §4, §5\n(§7) Color measurements were made with a professional flatbed scanner (EPSON EXPRESSION 10000XL, Atea NS, Lautrupvang 6, 2750 Ballerup, Denmark), which was used to capture an image of the washed soiled textile. To extract a value for the light intensity from the scanned images, 24-bit pixel values from the image were converted into values for red, green and blue (RGB).\nas §6\nThe inhibitory specificity of the isolated propeptide was determined by mixing the isolated propeptide in a 320:1 molar ratio with 5 different lipases including the active RmL. All enzymes were diluted in 10 mM succinic acid buffer, pH6.5, to a concentration of 1.5 uM and were mixed (1:1) with purified propeptide dilutions. After 3 hours incubation at 4° C. the lipase performance of the incubated lipase-inhibitor samples were determined by Automatic Mechanical Stress Assay (AMSA) as described above. The relative wash performance “RP(wash)” is for each lipase normalized to the wash performance without inhibitor."}, "[4]": {"assay": "Hydrolytic activity, kinetic assay with p-nitrophenyl acyl esters", "assay_type": "biochemical", "settings": "substrates C3, C6, C10, C12, C16 at 1 mM; 50 mM Tris pH 7.7, 0.4% TritonX-100; 405 nm for 5 minutes", "method": "The hydrolytic activity of RmL with and without propeptide on various fatty acids was investigated in a kinetic assay using p-nitrophenyl acyl esters as substrate. The 100 mM stock solutions in DMSO of the substrates: p-Nitrophenyl butyrate (C3), p-Nitrophenyl caproate (C6), p-Nitrophenyl caprate (C10), p-Nitrophenyl laurate (C12) and p-Nitrophenyl palmitate (C16) (all from Sigma-Aldrich Danmark NS, Kirkebjerg Allé 84, 2605 Brondby; Cat. no.: C3:N-9876, C6: N-0502, C10: N-0252, C12: N-2002, C16: N-2752) were diluted to a final concentration of 1 mM into assay buffer (50 mM Tris; pH 7.7; 0.4% TritonX-100).\nRmL with and without propeptide and appropriate controls: Buffer (negative), Lipex™ (positive) RmL with and without propeptide in 50 mM Hepes pH8.0; 10 ppm TritonX-100; 20 mM CaCl2 were added to the substrate solution in the following final concentrations: 0.01 mg/mL; 5×10^−3 mg/mL; […]; and 1.25×10^−4 mg/mL in 96-well NUNC plates (Cat. No: 260836, Kamstrupvej 90, DK-4000, Roskilde). Release of p-nitrophenol by hydrolysis of p-nitrophenyl acyl was monitored at 405 nm for 5 minutes in 10 second intervals on a Spectra max 190 (Molecular Devices GmbH, Bismarckring 39, 88400 Biberach an der Riss, GERMANY)."}, "[5]": {"assay": "AMSA wash performance after activation with detergent and/or protease", "parameters": "key to No (RP) / Det (RP) / Sav (RP) / Det + Sav (RP): wash performance relative to reference lipase (Lipolase), RP ratio", "method": "as §1, §2, §3, §4, §5, §7, §6\nWild type RmL without or with propeptide respectively were submitted to no, detergent, protease or detergent+protease treatment prior to performance test in AMSA to test the activation level of the lipase after the treatment. […] […] Wash performance of all samples were determined by Automatic Mechanical Stress Assay (AMSA) as described above."}}}
{"molecule": "B1", "values": [{"measurement": "RP (wash) Rep. 1", "setting": "[1]", "result": 1.00}, {"measurement": "RP (wash) Rep. 2", "setting": "[1]", "result": 1.00}, {"measurement": "RP (wash) Rep. 3", "setting": "[1]", "result": 1.00}, {"measurement": "RP (wash) Rep. 4", "setting": "[1]", "result": 1.00}, {"measurement": "Thermostability Td at pH 8.0", "setting": "[2]", "result": 61, "unit": "°C"}, {"measurement": "With inhibitor RP (wash)", "setting": "[3]; propeptide SEQ ID No: 4 in 320:1 molar ratio, 3 hours at 4° C., normalized to wash performance without inhibitor", "result": 0.02}, {"measurement": "No inhibitor RP (wash)", "setting": "[3]; without propeptide SEQ ID No: 4, normalized per lipase", "result": 1.00}, {"measurement": "hydrolytic activity on p-nitrophenyl acyl esters", "setting": "[4]", "result": "activity in all conditions tested"}, {"measurement": "No (RP)", "setting": "[5]; 60 minutes in 10 mM succinic acid pH6.5", "result": 1.00}, {"measurement": "Sav (RP)", "setting": "[5]; 60 minutes in 1.35% (v/v) Savinase in 10 mM succinic acid pH6.5", "result": 0.99}, {"measurement": "Det + Sav (RP)", "setting": "[5]; 60 minutes in 1.35% (v/v) Savinase in 77% (w/w) Detergent B", "result": 0.84}, {"measurement": "Det (RP)", "setting": "[5]; 60 minutes in 77% (w/w) Model detergent B", "result": 0.89}]}
